Measured values as given in publication PMC4764080 (Cell, 2009).
Square brackets hold non-standard residues; d marks the D form. pY = N[C@@H](Cc1ccc(OP(=O)(O)O)cc1)C(=O)O

Tests used:
PLCγ pY783 = assay: Tyrosine phosphorylation of PLCγ; assay type: cell-based; settings: L6 myoblasts stably expressing FGFR1; 100 ng/mL FGF, 5 min, 37 °C; anti-pY783 (PLCγ) immunoblot
[1] = molecular target: FGFR1-3P (trisphosphorylated cytoplasmic region of FGFR1: tyrosine kinase domain and C-terminal tail) (UniProt P11362); assay: ITC
FGFR1-3P(RD/VV) = FGFR1-3P(RD/VV) (UniProt P11362); assay: ITC
FGFR1-3P(VV/DD) = FGFR1-3P(VV/DD) (UniProt P11362); assay: ITC
[2] = molecular target: FGFR1-3P (trisphosphorylated cytoplasmic region of FGFR1: tyrosine kinase domain and C-terminal tail) (UniProt P11362); assay: SPR
[3] = molecular target: pY766 peptide (synthetic phosphopeptide of the C-terminal region of FGFR1, TSNQEpYLDLSM); assay: SPR
[4] = molecular target: FGFR1-3P (trisphosphorylated cytoplasmic region of FGFR1: tyrosine kinase domain and C-terminal tail) (UniProt P11362); assay: SPR; remark: listed apart in the source
[5] = molecular target: T1, isolated C-SH2 domain of PLCγ (rat); assay: ITC
T1 sequence (P10686 whole entry, looked up): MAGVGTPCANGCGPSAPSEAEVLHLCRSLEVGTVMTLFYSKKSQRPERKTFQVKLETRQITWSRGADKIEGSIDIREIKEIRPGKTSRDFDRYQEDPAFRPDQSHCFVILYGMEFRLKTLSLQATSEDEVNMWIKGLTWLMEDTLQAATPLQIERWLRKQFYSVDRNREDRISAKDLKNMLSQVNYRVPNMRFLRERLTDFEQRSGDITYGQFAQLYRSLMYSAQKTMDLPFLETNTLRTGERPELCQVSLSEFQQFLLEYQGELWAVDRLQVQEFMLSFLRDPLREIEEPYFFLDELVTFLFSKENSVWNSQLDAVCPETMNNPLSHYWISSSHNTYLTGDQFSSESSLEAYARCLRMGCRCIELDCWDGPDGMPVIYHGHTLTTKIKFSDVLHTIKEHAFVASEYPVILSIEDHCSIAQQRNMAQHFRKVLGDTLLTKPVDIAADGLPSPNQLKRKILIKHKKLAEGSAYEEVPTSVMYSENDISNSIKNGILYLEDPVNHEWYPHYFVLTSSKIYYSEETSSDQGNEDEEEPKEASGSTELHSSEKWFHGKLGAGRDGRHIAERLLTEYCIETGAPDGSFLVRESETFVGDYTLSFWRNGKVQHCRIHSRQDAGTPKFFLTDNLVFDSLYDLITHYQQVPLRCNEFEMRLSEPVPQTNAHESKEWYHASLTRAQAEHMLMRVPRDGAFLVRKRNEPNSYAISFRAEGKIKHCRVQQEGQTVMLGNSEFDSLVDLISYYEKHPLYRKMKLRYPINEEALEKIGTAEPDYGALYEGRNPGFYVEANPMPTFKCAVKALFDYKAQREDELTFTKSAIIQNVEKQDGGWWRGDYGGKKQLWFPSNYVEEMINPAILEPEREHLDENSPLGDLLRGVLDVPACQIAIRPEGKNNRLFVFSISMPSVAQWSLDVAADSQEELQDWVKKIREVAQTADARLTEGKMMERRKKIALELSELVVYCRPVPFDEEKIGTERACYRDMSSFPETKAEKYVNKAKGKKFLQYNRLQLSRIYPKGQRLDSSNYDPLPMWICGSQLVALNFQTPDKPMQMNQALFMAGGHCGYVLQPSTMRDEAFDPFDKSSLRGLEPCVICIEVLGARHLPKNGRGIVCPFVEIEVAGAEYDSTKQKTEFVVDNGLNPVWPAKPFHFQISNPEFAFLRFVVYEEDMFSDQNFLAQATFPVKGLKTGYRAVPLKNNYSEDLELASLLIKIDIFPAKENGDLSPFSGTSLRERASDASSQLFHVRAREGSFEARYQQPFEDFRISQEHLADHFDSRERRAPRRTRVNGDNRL

[6] = molecular target: T2, isolated N-SH2 domain of PLCγ (rat); assay: ITC
T2 sequence (P10686 whole entry, looked up): T1 sequence (P10686 whole entry, looked up)

FGFR1(Y766F): FGFR1 mutant Y766F in the primary binding site for the N-SH2 domain, expressed in L6 myoblasts
tyrosine phosphorylation of PLCγ (PLCγ pY783): negligible tyrosine phosphorylation of PLCγ

WT FGFR1: wild type FGFR1 stably expressed in L6 myoblasts
tyrosine phosphorylation of PLCγ (PLCγ pY783): tyrosine phosphorylation of PLCγ

isolated C-SH2 domain of PLCγ (domain or fragment)
Kd [1]: 490 nM

isolated N-SH2 domain of PLCγ (domain or fragment)
Kd (FGFR1-3P(RD/VV)): 112 nM | Kd (FGFR1-3P(VV/DD)): 221 nM | Kd [1]: 33 nM | Kd [2]: 44 nM | Kd [3]: 5670 nM | Kd [4]: 142 nM

{biotin‑XX}-TSNQE[pY]LDLSM-NH2 [pY766 peptide (synthetic phosphopeptide of the C-terminal region of FGFR1, TSNQEpYLDLSM)]
Kd [5]: 1810 nM | Kd [6]: 433 nM
